# From paper PMC7474598
# Key:
# [1] = molecular target: FLAG-SEPN1^D80A (human) (UniProt Q9NZV5); assay: sucrose gradient sedimentation; lysates of HeLa cells treated for 2 h with DMSO or Tg; 4% to 20% sucrose gradients, 19 fractions, FLAG immunoblot; markers BSA, IgG, catalase
# [2] = molecular target: FLAG-SEPN1^U428C (human) (UniProt Q9NZV5); assay: as above
percent monomer (DMSO-treated cells) [1],percent monomer (Tg-treated cells) [1],percent oligomer (DMSO-treated cells) [1],percent oligomer (Tg-treated cells) [1],percent monomer (Tg-treated cells) [2],percent oligomer (DMSO-treated cells) [2],Substance
79.7%,78.4%,21.5%,21.5%,,,FLAG-SEPN1^D80A (from UniProt Q9NZV5-2 44-556) (natural protein)
,,,,61.8%,96.2%,FLAG-SEPN1^U428C (from UniProt Q9NZV5-2 44-556) (natural protein)
